For assay [1], the target named is FBG-like domain of human Tenascin-W with Arg1220 changed to alanine (FBG-W^RKKA) (human). The experiment in a line: SPR; Biacore T200; FBG-like domains immobilised on CM5 by amine coupling; mature TGF-β1 injected in single-cycle mode; PBS with 0.05% P-20, 25°C, 30 µl/min; heterogeneous ligand model; apparent constants. On the technique in general: In SPR one partner is held on a chip, and binding of the other changes the refractive index at the surface.

Assay [2] deals with FBG-like domain of human Tenascin-X (human). The description is as above.

Regarding “recombinant human mature TGF-β1 (ligand)”, in assay [1], the KD1 (heterogeneous ligand model, site 1) stood at 1.89 µM; the KD2 (heterogeneous ligand model, site 2) worked out at 6.48 µM; the ka1 (heterogeneous ligand model, site 1) was 1040 M⁻¹ s⁻¹; the ka2 (heterogeneous ligand model, site 2) was 14300 M⁻¹ s⁻¹. In assay [1], the kd1 (heterogeneous ligand model, site 1) is 0.00196 s⁻¹ and the kd2 (heterogeneous ligand model, site 2) came out at 0.0926 s⁻¹. In assay [2], the ka1 (heterogeneous ligand model, site 1) is 8080 M⁻¹ s⁻¹; the ka2 (heterogeneous ligand model, site 2) came to 207000 M⁻¹ s⁻¹; the kd1 (heterogeneous ligand model, site 1) is 0.00276 s⁻¹; the kd2 (heterogeneous ligand model, site 2) turned out to be 0.0845 s⁻¹.

The record behind these values is paper PMC8155481.
